# Data taken from patent US20250264476A1, “AMINO ACID-SPECIFIC BINDER AND SELECTIVELY IDENTIFYING AN AMINO ACID” (Government of the United States of America, as represented …, priority 2021, published 2025).
# System: biotinylated peptides that vary only by their N-terminal amino acid
# Test: Bio-layer interferometry (BLI) binding of ClpS to biotinylated peptides on streptavidin probe
# Conditions: ClpS at 0.312-40 μM in 20 mM HEPES pH 8, 150 mM KCl, 0.1% BSA, 0.05% Tween-20
# Protocol: The initial binding activity of T. elongatus ClpS2 was characterized using bio-laver interferometry (BLI) In BLI, a functionalized fiber-optic probe is placed in a solution of analyte and the accumulation of analyte on the functional group of the probe is measured by changes in reflected light within the probe. A BLI probe functionalized with streptavidin is allowed to accumulate biotinylated peptide. Probes with peptide are then placed in solutions of ClpS of varying concentration and allowed to equilibrate. BLI response is then graphed to concentration to establish a binding curve. Dilutions of T. elongatus ClpS2 were made in 20 mM HEPES pH 8, 150 mM KCl, 0.1% BSA, and 0.05% Tween-20 at concentrations of 0.312, 0.625, 1.25, 2.5, 5, 10, 20, and 40 μM.
# With regard to peptides, all peptides are named by indicating the first two residues, with the full sequence available in Table 3. All of the peptides had the same sequence for the C-terminal end of the peptide, XXAVECK (Sequence ID No. 18), where the N-terminal amino acids are varied. The peptides also contained a biotin linked via the lysine side chain on the C-terminal residue. X1G2 peptides started from a lyophilized form. Peptides were resuspended in 1×DPBS and diluted to the appropriate concentration into the experiment buffer. […]
# biotinylated peptides that vary only by their N-terminal amino acid, sequence (as listed by the source): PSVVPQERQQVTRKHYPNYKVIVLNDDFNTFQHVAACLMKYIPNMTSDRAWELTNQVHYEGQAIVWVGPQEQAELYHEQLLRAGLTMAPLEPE
molecule,measurement,value
"T. elongatus ClpS2: wild-type ClpS protein, N-End Rule Pathway adaptor protein, parent of the engineered variants (protein, listed as Thermosynechococcus elongatus) ASVVPQEGQQVTRKHYPNYKVIVLNDDFNTFRHVAACLMKYIPNMTSDRAWELTNQVHYEGQAIVWVGPQEQAELYHEQLLRAGLTMAPLEPEGS",binding preference across four peptides that vary only by their N-terminal amino acid,strong preference for binding leucine
